For one molecule, Kd results are on record in publication PMC4930721 (Cancer discovery, 2016).

Where no end group is shown, it is not given here. Me3 = trimethyl-lysine

The target of the assay is LEDGF PWWP (residues 1-120), 15N-labeled (UniProt O75475 1-120, uniformly 15N-labeled). Briefly: NMR titration.
LEDGF PWWP (residues 1-120), 15N-labeled, sequence (O75475 1-120): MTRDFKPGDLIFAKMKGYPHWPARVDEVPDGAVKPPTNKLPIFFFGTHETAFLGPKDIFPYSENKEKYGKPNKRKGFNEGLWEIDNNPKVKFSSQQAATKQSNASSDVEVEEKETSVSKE

For ATGGVK(Me3)KPHR [histone H3K36me3 peptide], the affinity, expressed as Kd, was 4.4 mM.

A word on the Kd: it is a measure of binding affinity in units of concentration. A lower Kd goes with higher affinity.
